Experimental data: the domain aggregation screens of Martell et al. (2025)

Assay: soluble fraction after stress (log2 fold change); higher = more stays soluble; pooled small domains, quantitative proteomics
Settings: stress: pH 4
Method in brief: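 Following acid stress at pH 4, the amount of each small protein domain still soluble was measured in pooled custom libraries by high-throughput quantitative proteomics. Its fold change, on a log2 scale, is higher when more of the domain stayed soluble. This fold change is taken as a measure of aggregation propensity.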

Sequence | soluble fraction (log2)
HMDNIGKTLGQNQTRQYKVAYAEAAKLPAIIMGLVPLPKPPVVDERLRSLYVTATPEQHRQIETLMNRI | -0.64
HMDNITIYSSNGKIYVNAIGGEKIELFNITGQKVAEKVAVSGINVLDAVYDITLVKVGSKVVKVV | -1.41
HMDNLATRILKELNNNDGFLPLSDKSQPEAIYQAFGISKKSYKTAIGTLYKKRLITISENGIQLTD | -0.2
HMDNLSQMQERILEFIIRSKDQSGYTPSLREIGDEVGLKAVSSVKYQLEQLKDAHYISFDANTARAIRVLI | -0.438
HMDNMFVEERQALIYEELQSNGRVRVKDLSKKFNVSEDLIRKDLNVLEKEGKLRKIYGGAVLAK | 0.071
HMDNNNQAAFMGALNSLKEYAKVNGNIVTKQDVESYFKDLGLDDSKYQMITGYLLANDITVKG | -0.0847
HMDNQYGVYSDEKNNVEIHWKRIDHPSVAKDHLDIEAYQNGKRVDINNQQADHYRYLINQEMNE | 0.226
HMDPAFAQHHDRALSILHSRGYEVHDSDTDLHWARPVLEFEAYKGSLEYKIVMSYPDLNIIEERVD | -0.685
HMDPASYEARLSTLREQGAQQLDPVRFQYLATLAQRLPTQTPGVALILANKLRAGLSDYEQRLSEAGS | -0.0623
HMDPDAIVSKGQLGALNNAIGRFIAQGGSQTVVDKGIAKRNPNAKKPADLTNSQAESLEAAILKILNG | 0.121
HMDPLGALSDRERQVLALIGQGHGLQAIADQLGVSYKTAANTSSALKKKLGVDGINGLMKFALDSG | 0.023
HMDPLGGFTKGDVDMDGRVAVNDAVMVLKNAIKLMELDTQQLMLADADNDGKITVNDAVMILKKAIKLID | -0.478
HMDPTLFRLNILEGLGLEKKNLTSEEQEQLRFLYEHFSMKEILMTIDYIKKLNLEKSIVNLYRLMQHP | -0.581
HMDPTVEENKLNPRDLLIIQRVKEGRTNKEIAEELNVAEITVKKQLSSLYQRYKVHNRNQLLLALD | 0.245
HMDPVQLEVIKKLNLLNAQKPKDIYALRDVLSEMFPQSDIRLLLKELLDKGYIYWNGHEVIYSHEMF | -0.431
HMDPYEYQLELEKLINNATELNKKYNYDPLKDKILAADAVKNSLETYVLQNYIVALENEIKQTLNQYQIL | -0.754
HMDQNDYMLTRIRNGQMRNKVSVSMPASKIKSAIAAVLKDEGYIENFALNDSSGKPSLIVNLKYYAGQPV | -0.0771
HMDQPVIDVREFGARGDGKQDDAPAIQAAVRLAEQLGGGRVVVPATREFYLLGSTIRIRGHHVTLTGPGAR | 0.0605
HMDRAIAAHLEARVRDALKQLSPEQTRVIELFFFDNKTHAEIENDLKIPLGTVKSRLRLALNKLRASL | -0.234
HMDRASGEEEALKEAEDAISRVWEFDGPVELNPQNSYLRRLQHELASRYNVKSVSIGQEPNRRVVYYK | -0.428
HMDRDPAEAGYDDGYLSGNTDGMNNDERATYDESSQYPTPDERQSYAAAYRRGYAAGFADGRKQAV | -0.138
HMDREIVEAIVPLEAAGKRFDAALAEMFPEFSRSRLTEWIKAGDALLAGEIVKPKVSVRGGEAVSLSIRV | -0.256
HMDRELVALVQKALSQLSEQQRRIVELHVMEGMKYLEIADLLQLSENTVRTHLKRAYKILRENH | -0.921
HMDRERFIKLGREIARAAFENVGKKATDKVLNSAAKKLRLEDGDEVLARLGSAEIEARSVVQAVYPDLI | 0.336
HMDRKARRKYIEQVVNDRKIETQEELLKLLTEAGFETTQATISRDIHALNIVKANDGDGHTHYVQLH | 0.0264
HMDRKEEIIIVTLKLASQIGLSNVSMEQIAKQVGIKKPSLYNHFKSKDEIIDAMYEYLREKSKN | -1.16

Sequence | soluble fraction (log2)
HMDRMIPPYGLEVTYDKTTHIIFPSAVRYVDLGSPNLIAGKADGSENVIRVKATRKNFREETNMSVITE | -0.0773
HMDRPEPLYIVNGKEVQTLEEAFELGRTLGSAKKGTQVRLRRLLPEEGVEKYGEKGRNGVFEFMVSA | 0.385
HMDRPLRTKEHFARFAGEQVVVKTSSPIDGRSSFTGTLEGMEGDDVIVEVDGSRIAIGYSLIKRAHVVG | 0.406
HMDRRFFVAEENYKRLDVFLSERMEEFTRSRIKKLIDEGHVELNGKSAKAGAEIRPGDEVAAEIPEVKE | 0.239
HMDRRIDIANAVKTALGSLPERQKTAIVLVHYEGFSGAETAKLLGISVEAVESLLARARRNLRQTLGP | -0.586
HMDRTIGEIGLVTETIDSTLESGRVMVDGLSWKARTSDNTVLEAGTRVQVKEIHGVTLTVEKA | 0.147
HMDRTLTYTVSIEESDLRADQFLSRRGFSSHLLTRLRKNMEHLLINGTPSRTNTHLHEGDILTVHIVEE | -0.249
HMDRWTPLIVAVLIEGSHRFGELRSAIGGITPKVLTETLRSMERDGLVTRDQVPGVPPRVDYALTPLG | -0.434
HMDRYVDEEKRFYWRSGEAYLNFSKYKDRSLAEVATVDPGFLRWMMEADFSPETKQIVERALEGEFPQKK | -0.244
HMDSADADLLRRIEDLLSSRRSVIREARLADMLGVPRDQVARALDLLQERGVIGLTTDSGMKRIAFRRN | 0.111
HMDSAQLARWAATILAQNGRKITPSTMNLFLERVGDDMENIRMELEKLISYTMGSEVVTAEDVKVITTVQ | -0.82
HMDSAVLQKHLVKLIELHAPIKARNLAKILADEFGKHVDRSAVNSALYSLKAERKVEVNSSYEWSLD | 0.252
HMDSDRAARLSSLTPQQFRVLRMVSEGQLNKQIAYQLNISEATVKSHVSAILQKLGVNSRTQAVILATRLD | 0.147
HMDSEQLSGLVNMGFSVYQAKTALEMFDNDIERAANYL | -0.871
HMDSERTALLSSDRTSFTAREAALLIGVSQRDIYRMIEDELLDSFTVGKMIRIRRSALEWWLS | -1.46
HMDSFEEGTYRKNQRGFGFVKIENQEDEIFISKENSLNALNGDRVIVEIIEDKDRTKRAEGKIKKILKHE | -0.086
HMDSGLLSAREREVAGLVLSGMTYAEIGEAIFISPRTAEHHIARIRRRLGATSRTDLIAKLQAIVGID | -1.42
HMDSGVPEWLASALRASPVAWKNFLALPPSHQRRYVGWISSARRDETRNRRIAEAISLLVEHKRLG | 0.0211
HMDSIKDQIYQILKEDILTGELRSGEQLVEQTIAARFNTSRSPVREAIKQLTGDGLVINITNKGTFVK | -0.0915
HMDSISEQIYSIIKEEILLAKRKPGEQINPRKLADEFETSVMPIRDALNQLANEGLVIRKPRVGFFVR | -0.177
HMDSITEADLLRWAHALSGIARTGLGFTESRYERERYEEVLAVAADILAASSRSHDRAALVDEWLKMVGV | -1.55
HMDSKKNLLGKNGLAFTTLRPAGTVLIDGQRHDVISNGDMIPKGATVRVIAIEGASITVEALPD | -0.309
HMDSMATVPDLVGKTEDEAKALANDAHLGVQMAGEEASDQEKGKISRQETAAGTQVAEYTTVKYWVSTGTQ | 0.154
HMDSPALAIPSSAILRDGLEHIFFRQDPSDPDQVIRVVADLGLSDGRWTVVRSGLERTDQVVLSGA | -0.281
HMDSQKKNETLSSTADEIIKNYAGKRDLSEESMEQLEQFQKDMRGADVNIFTAAQIRMLDQIFQENLH | 0.0679
HMDSSLVWVDYLLGSKLTKLNSSNELTGPGASAKTIGAFLGENKQSFDLYIESVHNARDTYSDILTHGT | -0.122

Sequence | soluble fraction (log2)
HMDSSSYSAKVGTLIQETRQARGMTQAQLAQALGTSQSAINRIEKGGQNISLDMLNRISEVLSSQIVTLNP | -0.255
HMDSVAKSFLAEIERFLETAGLEPTTLGKQALGDPSFVFDLRKGRSPSTRTIGKLRVWMQQQNALS | -1.24
HMDSVTLGISFNGKTRFTLDFPADAAAADIEKAALEAEQSQRYLEGMTVAKVIVVPGRIVNIVLK | -0.185
HMDSVTMYATTGVNVRSGPSTSYSIVGGLDRGDKVTRIGTSGNWTKVVWGNGSAYVFSKYLQTGY | 0.232
HMDTAEQNWRLRGKLVTLGLNARQIRMALASHAPRYLEDNIAVVERDLAAGKVRNLPAYLLAALREDYRP | -0.147
HMDTEIGDILALRQIMELLDEKDRQLIIMRYFQGLTQSVTAKNLNMTQVQVSRREKKLLTFMREQLL | -0.761
HMDTEVVMINVVGMNIDKAKNSLNHKNILYKISYQDVSEGENNVVLKQSISSNTKIKKGQVVSLVVGKLN | -0.0691
HMDTFEITVEESDIDKRIDLFLAGNLESFSRSYIQDLIKKGKATISGKPVKANYRLREGDSVVLSIPKPK | -0.946
HMDTGKLQSLVGSRGVAHTVLRPSGKVMIGDDVYPAVAETGFIPRGTAIVVRREEQGQLYVVEARK | 0.275
HMDTGPISGQVEADRVEVHGHLDGKISAQNVVVGQTGVVKGDIEFGENLRTEEGADIEGYIK | 0.22
HMDTGPSFATRRQEAFNALTQIAASNKEFMNVAGDVLWKVADFPEAQILAQRWRRIIPPNVLGEA | -0.438
HMDTIAEFIAELTPLEQKVFHVYYEKGQSLKDTAQQAEITSTSARGALDRIRAKGRHFHLAVILFIG | -1.22
HMDTINEYERNILSLITSKPGISAVQIAADTDKSIITAKRGIKTLVDGKLIEYRGSKKTGGYFLLTQS | 0.275
HMDTIYMVVAKNIKYYRLIKSMSKKDLAEAVNVTPMAISNYENGKRKPEIDILKKIANVLGVRVVDFLTVR | -0.194
HMDTKLFNYGVGKHAYISWNEGGKRTAYIGFGNDGADVLTINNVKQGGSLGIYKDKITLNSQTVLTD | -0.381
HMDTLHGRILEEFSRKIVDGTWPPGFSLPKETELADQYGVSRMTMNKVLTRLASDGFVIRRKRSGTVVAQP | -0.176
HMDTLTRAMVWTIIARAEGVDTTGGATWYAKAQEWVTAKGISDGENPNAAITRQELVTMLYRLAGEPAV | -0.681
HMDTMQQESMDTKSILATALMELTSRKNFAKITIADITHVSGFNRQTFYYHFRDKYELLSWIY | -0.117
HMDTNRIIGNKIYQLRRSINMTQQELAEKVGISVTFLSEIENGRKSMSVDTLIKLSKGLQVSLDTIVF | -0.831
HMDTPVYYYVNGNGVRMRKDASLESDILILLYKGTKVEYVDVKGEWIKVKYNNEIGYIRNDLLSAEMPD | -0.527
HMDTQITPNKAKEIALAHAGVTEAAANFKKIKLDNKNGKSIYEIEFIANKSRYEFIVDAKNGSIIKFEK | 0.102
HMDTRKEREIALYEAALRLIASGVNPAAMKVQQIADEAGIGKGTVYEYFASKEEILHGMALH | -0.36
HMDTTLFGLFQNVILTQEDYEELSRTIVEDLDGLIDRLSAYMTSTGKTYKNHKATLLSWYLQDEKKFK | -1.49
HMDTVEALTEQLKKLDKRGEGQIPAPEFKQYMMNMGGKMTAEELDEMMKVADPGKEGVVNIAEFADAL | -0.229
